{"source": "the DeepSol protein solubility set", "data": [{"experiment": "soluble on expression in E. coli; label from the status in PepcDB or PDB records", "values": [{"sequence": "MGSDKIHHHHHHMYQEISKLLMYGDLPQDEILYKLGQLFEQFEVGEYNKTELVRDINTQVKRILKVATDYGFDDNLWHNYLTFFLMMSENPFSITCEKVGASDGSVNGLVANDFRIFKKLFDYDFKPIESALGIDCFTQISNYKAIVKKDLMYNHNVSEKVRALSKKLEAAKDEQEFFDVVTGFYKAYGVGMFGLNKAFRIEEHLDGGFSFMPINNMDAVMLDDLIGYEIQKKKLTDNTEAFVQGKKANNVLLFGDSGTGKSTSIKAIVNQYYDDGLRMIEIYKHQFKYLSKIIAAIKNRNYRFIIYMDDLSFEEHEIEYKFLKAVIEGGVETKPDNILIYATSNRRHLIKETWNDRNDQDNSNDKHHSDTVEEKLSLVNRFGVTISYSKPSQKEFFNIVTELARKSGCTLSDEELCREANKWELSHGGISGRTATQFVNYIMANN", "soluble on expression in E. coli": "not soluble"}, {"sequence": "SNAMAHEAQKAIARNSLLIRSLPEQHVDALLSQAVWRSYDRGETLFLQEEKAQAIHVVIDGWVKLFRMTPTGSEAVVSVFTRGESFGEAVALRNTPYPVSAEAVTPCEVMHIPSPVFVSLMRRDPEICISILATTFGHLHSLVAQLEQLKAQTGAQRVAEFLLELCDCDTGACEVTLPYDKMLIAGRLGMKPESLSRAFSRLKAAGVTVKRNHAEIEDIALLRDYAESDPADSWSES", "soluble on expression in E. coli": "soluble"}, {"sequence": "MDETTIRRLTEEDVDIFRAMRLEALRTEPAAYASTAADWEKLSADEWRTRLTQNNVFAAFWNDAPVGIMGLMRQGSSKMAHRATLIMVYVRAEARGTGIARALLEAVKSFAGDNGIRQIELAVSAENPAAASFYKRAGFSQIGCVPGGILHEGREIDDIMMACRVDAEGKE", "soluble on expression in E. coli": "not soluble"}, {"sequence": "MGSDKIHHHHHHMDYNQTVLSHLQKFWKHHDIKGFTWTLGRIVEELPDFQVFQVIPNHEDEPWVYVSSGIGQFLGQEFFIISPFETPEHIETLAMLASASMHYPDQFQLGKTVNIGRPWVEQSSFRHFLISLPYPYGQELEYMDNVRFFWLLPITQTERLFLNTHSVEELETKFDEAGIDYLDINRASTVWQAG", "soluble on expression in E. coli": "not soluble"}, {"sequence": "MGSDKIHHHHHHMTRIALTHVTTYRYGAPVTLGEHKMMFRPRDSHDLHIVEATLVLSPVAEVRWMHDVFGNSITIADFQGASTDFLRFESKILLDHFGLSEPTYPIAAYAETFPFTYDADLVADLGRTNERHYPDPDHRLDAWARRFLDEPGETATLEMLSAMNRAISAEFSYAARDTEGTQTPLETLERGSGSCRDFALLMMEAVRSLGLAARFVSGYLYDPALDGRNASGTVGAGATHAWLQVYLPGAGWVEFDPTNALVGGENLIRVAVTRDPSQAVPITGSFAGPGNAFLSMEVEVTLHRQDQNIQVA", "soluble on expression in E. coli": "not soluble"}, {"sequence": "MGSDKIHHHHHHMIDFLDVQKETPRIRIAIDRVGVKNIKFPLKIHDDFAFLTLNLFVDVPADRKGADMSRAVESIQKVINAGSYGERIGDIGIAICDEALSRFNYSEKAQCEVNIQYYRRSGERYLEYRMYVETAKDRKQIMKNEIGISYVTMTACPCAMETTRALISMDNPDISDAISAIPTITHNQRNVTKLTVDNRSKMITVWDLADVMERVQGKPLDSLLKRVEEGRLVYSAHRNPKFVEDVVREIAYEAARVLGVPDEATIKVSSESDESIHPHNAYAEIDTTAGELRKLHLH", "soluble on expression in E. coli": "not soluble"}, {"sequence": "MRRAFITGVFFLSEVEFSHEYWMRHALTLAKRAWDEREVPVGAVLVHNNRVIGEGWNRPIGRHDPTAHAEIMALRQGGLVMQNYRLIDATLYVTLEPCVMCAGAMIHSRIGRVVFGARDAKTGAAGSLMDVLHHPGMNHRVEITEGILADECAALLSDFFRMRRQEIKAQKKAQSSTD", "soluble on expression in E. coli": "soluble"}, {"sequence": "MVAVERVESLAKSGIISIPKEYIRPKEELESINDVFLEEKKEDGPQVPTIDLKNIESDDEKIRENCIEELKKASLDWGVMHLINHGIPADLMERVKKAGEEFFSLSVEEKEKYANDQATGKIQGYGSKLANNASGQLEWEDYFFHLAYPEEKRDLSIWPKTPSDYIEATSEYAKCLRLLATKVFKALSVGLGLEPDRLEKEVGGLEELLLQMKINYYPKCPQPELALGVEAHTDVSALTFILHNMVPGLQLFYEGKWVTAKCVPDSIVMHIGDTLEILSNGKYKSILHRGLVNKEKVRISWAVFCEPPKDKIVLKPLPEMVSVESPAKFPPRTFAQHIEHKLFGKEQEELVSEKND", "soluble on expression in E. coli": "soluble"}, {"sequence": "SNALFSSRDILEVLQDIHMETGETVAIATKNDIYLQYIQIIESVHALRFHVDENAIRPLTMSSNGWMLMSTMNDKAIDNTVRRANTITQKDGIRFEVDDMMARIRQVREQGYASAEHIPFVGGGTICVLLPMTIQGQPVTMGLGGALDRIKQNYDRYLELLLNGVQQLKKSDSFHQPI", "soluble on expression in E. coli": "soluble"}, {"sequence": "STSCVAEEPIKKIAIFGGTHGNELTGVFLVTHWLKNGAEVHRAGLEVKPFITNPRAVEKCTRYIDCDLNRVFDLENLSKEMSEDLPYEVRRAQEINHLFGPKNSDDAYDVVFDLHNTTSNMGCTLILEDSRNDFLIQMFHYIKTCMAPLPCSVYLIEHPSLKYATTRSIAKYPVGIEVGPQPHGVLRADILDQMRRMLKHALDFIQRFNEGKEFPPCAIDVYKIMEKVDYPRNESGDVAAVIHPNLQDQDWKPLHPGDPVFVSLDGKVIPLGGDCTVYPVFVNEAAYYEKKEAFAKTTKLTLNAKSIRSTLH", "soluble on expression in E. coli": "not soluble"}, {"sequence": "MTQRLQLTWYNKDKALIPTETGKYGYTWVDPSDPRYCETHTLIFDDYVQGAQTPKSDEFECSERADLQPQDDNLLILGESGDVLEALTRVPELAEKYVGKVKLVYIDPPFNTAQTFASYEDNLEHSIWLTMMRDRLIHMKKLLTNDGSIWVHLDDVEVHRMRVLMDEVFGADRFIATVAWEKDKGRRNDTDISGAHDLILIYAPSGRQWKNVRNLLPRLASQDARYQNPDNDPRGPWLQGDNGTAKSGTEKNRFPVTLPSGRVVTPKGRYWRFSPEGLAEARADGRVWFGKDGDSLPVIKRYLTDVQTGLVPRTWWNADEAGHNQEAKRDHLNKMFPEVENP", "soluble on expression in E. coli": "not soluble"}, {"sequence": "MERAPLLELKGIRKRFGELEVLRGVDLALYPGEILALLGPSGCGKTTLLRVVAGLEVPDAGRVFLEGRDITALPPEKRGIGFVFQDYALFPHLTALGNVAFGLKGKDRLARARKALERVGMTLFQDRRPGELSGGQQQRVALARALAPGPKLVLLDEPFSSLDAGLRAATREEVRKVLKETGTAALLVTHDQEEALSFADRLGVMRGGEILQVGTPEEVYLRPKTPFVAQFLGRTNLLPGEGRGRYAETCLGRVPLAEAREGPLLLSLRPEALRLTPPGQGPQGEVVAREFKGHDLTYRVRLHGVQPEREVLVQEGPTCPFKVGDRVGLEVVGEGVALEGTPPAPVRQEA", "soluble on expression in E. coli": "soluble"}, {"sequence": "MGSDKIHHHHHHMSLKFDFSNLFEPNISGGLTDEDVKSVEEKVTSAVRNFVENTPDFAKLDRSWIDSVKSLEDWIINFDTVVVLGIGGSGLGNLALHYSLRPLNWNEMTREERNGYARVFVVDNVDPDLMSSVLDRIDPKTTLFNVISKSGSTAEVMATYSIARGILEAYGLDPREHMLITTDPEKGFLRKLVKEEGFRSLEVPPGVGGRFSVLTPVGLLSAMAEGIDIDELHEGAKDAFEKSMKENILENPAAMIALTHYLYLNKGKSISVMMAYSNRMIYLVDWYRQLWAESLGKRYNLKGEEVFTGQTPVKALGATDQHSQIQLYNEGPNDKVITFLRVENFDREIVIPETGRAELSYLARKKLSELLLAEQTGTEEALRENNRPNMRVTFDGLTPYNVGQFFAYYEAATAFMGYLLEINPFDQPGVELGKKITFALMGREGYTYEIKERSKKVIIE", "soluble on expression in E. coli": "soluble"}, {"sequence": "MSLARTRILIVDDEDSIRFGMRDFLESRGYGVVDADSCQRARELFQASPPDVAVIDYRLHDGSAIDLLRDFRQIDADVPMIVLTAYGSIDLAVQAVKEGAEQFLTKPIEMPALHVILKRLLATRRLQRQQQVVATRDRRERVNPLSGGSPAIRDLAEQASKVMHTDSPILILGETGTGKSLLAKWLHHHGMRADEAFVDLNCAGLSPDFLETELFGHEKGAFTGATASKQGMLEIADGGTVFLDEIGDVDPRVQPKLLKVLEEKRFRRLGAVREREVDIRLIAATHHDLASKVKEGTFRSDLYFRISSIPLTMPALRDRKEDIVPLARTLLARSLADPSRTPQLTDDAALALREYAWPGNIREGHHHHHH", "soluble on expression in E. coli": "not soluble"}, {"sequence": "AHHHHHHMVHITLDRNTANSWLIISKDRRQVRMGDTHQNVSDNKERFSNYPMVLGAQRFSSGKMYWEVDVTQKEAWDLGVCRDSVQRKGQFSLSPENGFWTIWLWQDSYEAGTSPQTTLHIQVPPCQIGIFVDYEAGVVSFYNITDHGSLIYTFSECVFAGPLRPFFNVGFNYSGGNAAPLKLCPLKM", "soluble on expression in E. coli": "soluble"}, {"sequence": "GGFDGHTHSAGKINVGRFINPNDARKNPVPGLSGQVARTEKTRAQVGYNTPNTYAIGYRYAKLGYTTICEAAIPLLAARHTHEEFKEIPILDKMGLSLFGSNWQVMEYIRDKEPEKLAAYIAWGLKASRGYGVKIVNPGGGEAWGWGRNVSGLYDPVPNFDVTPAEILLGLAEANERLQLPHSIHVHCNNLGKPGNYATTIETMKLLEKVKPSRDRQALHVTHVQFNAYAGTSWRDFETGAPMVADYINGANHLTFDLGQVIFGPAVTMTADGPVEYANSRMLHEKWSNQDIELEDASGVVPLFYSPKSFVNAVQWAIGLELALLVKDPWKVMFTTDSPNGGSFVNYPEAFTYLMSAKRREEVISGFSKMALDRMVLPGIDRELDFYELAVMTRSTQSKMYSMPEKGNLKVGSDADIAIYDILPGQVDPSTEYAKVKKAFSAASYTLKSGEVVVKDG", "soluble on expression in E. coli": "not soluble"}, {"sequence": "MNHRDKQIDSGSGSGENRRTYDCDICKRGFTNPQALGGHNNIHRRERERYPSSSSSSHSFPFSLPLPSQSPSSSTNFTNPPPYFPTIESYLHQGSQPPINPSHNTQYFGSSSSSRGGGRFAQGASHDLNLSLGLGSMNEDDDTHRSPPETGGSQPQDGDLDLDLRLGGHRHH", "soluble on expression in E. coli": "soluble"}, {"sequence": "MGSDKIHHHHHHMNELQAILEGFESSQESGEITFLATVVKTQGSTYRRPGAKMFMTNTGRTIGTISAGCLENDVFEYTQQRMSDGKPILVTYDRTASEDILWGFGLGCNGVVQVLIERLERKSIPNAIAFTQECFHKKHLGIIATVFAFEGEVDVELGSRLLLYPNGKIVTDIKDQYLIQSLSADTQAAFVNQKPSVNNYQLPFGSAEVFIEVIQPPTPLVIFGAGYGAVPIAKFAQALGWDVTVVDCRANDTTRARFPLACDVILSNRYIIHKQIFIDVQTIAVVMTHNYLDDLEILKMMLPSPARYIGVLGTKYRTERLLEDLSIKGIVPTSEQLNRLYSPVGIDIGAETPEEIAIAIIAEIQAVLKNRNSNFLKNRNQPIHKSYQDNFNL", "soluble on expression in E. coli": "not soluble"}, {"sequence": "MGSDKIHHHHHHMSKKVVVTGANGYIGAHLIAELQKHSQHFQTIAVDIDDKYIPKGVTFVSMDLLNEARKETLYKECGEPDICVHLAWRDGFQHNALSHIDDLPCHFHFLKNLADHGTTHFAIAGSFREYGSVNGMVDQDAVVIPDNFYTLAKSMLKQALEIYFKEKNICLQWLRPFTVYGNDSRNNSIMSKIIRWEDEGKQSFPFTSGNEEYDYVSVYEVARQIAAVISQREVDGIIDCCTGKPTRLGDKIEGFIRENHFKIRPEYGAFPKREYDSSVIYGDNRKITEIIKKCILF", "soluble on expression in E. coli": "not soluble"}, {"sequence": "MGSDKIHHHHHHMKYRRIKGTNDIFGEEIWYWRYVEETFRNVCESAGIEEIRTPIFEQTELFVRSVGEESDIVQKEMYTFQDKAGRSITLRPEGTAPVVRAFLENSLIDRGFQQRYYYIGPMFRYEKPQSGRLRQFHQVGFEIIGPESPKADFEVIMLVDTFLRRLGLTKYKIHLNSIGCPVCRKNYREALKEYYGRILDNLCDDCKRRYETNILRLLDCKVDHEYSLNAPKSVDYLCDSCRAHYKKLKEYLNTFEIEYVEDHTLVRGLDYYTRTVFEVRHEGLGAQSAIAGGGRYDGLFAELGGSSVPALGFAGGIERIILALKAEGIEIPMKNVHLVYIATLGEKAFMDGVRLAGELRKKGLSVDVDIMDRKLSGQLKHASRMGSRYAVIIGDEELEKGIVILRDLETGDQVEIDRDFAADYIAERVSKD", "soluble on expression in E. coli": "not soluble"}, {"sequence": "MSKSEEKQELPLETSPYTKYEDIEDYKKNAYGTSGHQDVKPGHGGGTTDAPTPSGDAAPSAIDSANQKAKK", "soluble on expression in E. coli": "soluble"}]}]}
